According to PMC4958977, “Revisiting the mechanism of coagulation factor XIII activation and regulation from a structure/functional perspective” (Scientific Reports, 2016):

Biological target: the molecule itself
Test: SEC; 25 ug purified FXIIIA2B2 incubated with 46.2 U/mL thrombin and 25 mM CaCl2, 20 mM Tris, 120 mM NaCl, pH 7.4, 60 minutes at 30 degrees; Superdex 200 PC 3.2/30; peaks checked by native PAGE and mass spectrometry

B1: coagulation factor XIII B subunit (natural protein, human, UniProt P05160 21-661, looked up)
chain: EEKPCGFPHVENGRIAQYYYTFKSFYFPMSIDKKLSFFCLAGYTTESGRQEEQTTCTTEGWSPEPRCFKKCTKPDLSNGYISDVKLLYKIQENMRYGCASGYKTTGGKDEEVVQCLSDGWSSQPTCRKEHETCLAPELYNGNYSTTQKTFKVKDKVQYECATGYYTAGGKKTEEVECLTYGWSLTPKCTKLKCSSLRLIENGYFHPVKQTYEEGDVVQFFCHENYYLSGSDLIQCYNFGWYPESPVCEGRRNRCPPPPLPINSKIQTHSTTYRHGEIVHIECELNFEIHGSAEIRCEDGKWTEPPKCIEGQEKVACEEPPFIENGAANLHSKIYYNGDKVTYACKSGYLLHGSNEITCNRGKWTLPPECVENNENCKHPPVVMNGAVADGILASYATGSSVEYRCNEYYLLRGSKISRCEQGKWSSPPVCLEPCTVNVDYMNRNNIEMKWKYEGKVLHGDLIDFVCKQGYDLSPLTPLSELSVQCNRGEVKYPLCTRKESKGMCTSPPLIKHGVIISSTVDTYENGSSVEYRCFDHHFLEGSREAYCLDGMWTTPPLCLEPCTLSFTEMEKNNLLLKWDFDNRPHILHGEYIEFICRGDTYPAELYITGSILRMQCDRGQLKYPRCIPRQSTLSYQEPLRT
notes: human coagulation factor XIII B subunit from plasma, ten Sushi domains; 80 kDa; also called FXIIIB; FXIIIB2; source: purified as FXIIIA2B2 from plasma concentrate Fibrogammin P (CSL Behring), gel filtration on Superdex 200
binding result: binds
